Test results from patent US20200369769A1.

Target: PD-L1 (UniProt Q9NZQ7)
Assay: cell-based or functional assay

PD-L1, sequence (Q9NZQ7 19-290 limits assumed): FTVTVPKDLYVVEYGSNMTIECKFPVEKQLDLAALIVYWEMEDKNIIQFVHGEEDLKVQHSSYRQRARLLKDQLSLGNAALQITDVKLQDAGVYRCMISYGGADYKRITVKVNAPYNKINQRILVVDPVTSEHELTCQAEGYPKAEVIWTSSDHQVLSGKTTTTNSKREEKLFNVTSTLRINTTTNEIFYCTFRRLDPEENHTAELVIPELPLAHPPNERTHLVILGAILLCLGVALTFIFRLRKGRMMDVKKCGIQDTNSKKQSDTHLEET

- IL2 concentration (% over isotype control), mixed lymphocyte reaction (% over isotype control): 247
Substance: anti-PD-L1 antibody (chimera of the variable domain of atezolizumab with human IgG2 domains)
